Patent US20120039897A1 (PHILIPPS UNIVERSITAET MARBURG, published 2012)
Where a chain is given by its changes, count along the chain named.

B1: recombinant Aβ(21-37) autoantibody 54/62 (antibody, V domains shown)
VH: EVQLVESGGGVVQPGGSLRLSCAASGFTFSSYWMSWVRQAPGKGLEWVASVKQDGSEKYYVDSVKGRFTISRDNAKNTLYLQMNSLRAEDTAVYYCARDGSSWYRDWFDPWGQGTLVTVS
VL: DIVLTQSPATLSLSPGERVTITCRASQSVNSYLAWYQQKPGQAPRLLIYGASTRATGIPDRFSGSGSGTDFTLTISRLEPEDFAVYYCQQYGSSQGTFGPGTKVDIKR
B2: recombinant Aβ(21-37) autoantibody 47/56 (antibody, V domains shown)
VH: B1 VH with S30R, N74T, A75S, G100A
VL: B1 VL with D1E
B3: recombinant Aβ(21-37) autoantibody 51/62 (antibody, V domains shown)
VH: B1 VH
VL: B1 VL with D1E, A25E, S28G, V29I, N30R, S31N
B4: recombinant Aβ(21-37) autoantibody 54/68 (antibody, V domains shown)
VH: EVQLVESGGGVVQPGGSLRLSCAASGITFRSYDMSWVRQAPGKGLEWVASVKQDGSEKYYVDSVKGRFTVSRDNAKNTLYLQMNSLRAEDTAVYYCARDAGRWADLAFDIWGQGTLVTVS
VL: B1 VL
B5: recombinant Aβ(21-37) autoantibody 55/62 (antibody, V domains shown)
VH: B1 VH
VL: B1 VL with V3Q, L4M, A9G, V19A, T20A, I21L, T22S, N30S, G50A, T53I
B6: recombinant Aβ(21-37) autoantibody 50/62 (antibody, V domains shown)
VH: B1 VH
VL: B1 VL with V3Q, L4M, V19A, T20A, I21L, T22S, S52A, T53S, D60A
B7: recombinant Aβ(21-37) autoantibody 50/68 (antibody, V domains shown)
VH: B4 VH
VL: B1 VL with V3Q, L4M, V19A, T20A, I21L, T22S, S52A, T53S, D60A
B8: recombinant Aβ(21-37) autoantibody 50/69 (antibody, V domains shown)
VH: B1 VH with S30R, S35H, F68V, S71T, R72A, N74R
VL: B1 VL with V3Q, L4M, V19A, T20A, I21L, T22S, S52A, T53S, D60A
B9: recombinant Aβ(21-37) autoantibody 55/69 (antibody, V domains shown)
VH: B1 VH with S30R, S35H, F68V, S71T, R72A, N74R
VL: B1 VL with V3Q, L4M, A9G, V19A, T20A, I21L, T22S, N30S, G50A, T53I
B10: recombinant Aβ(21-37) autoantibody 50/67 (antibody, V domains shown)
VH: EVQLVESGGGVVQPGGSLRLSCAASGFTFRSYWMHWVRQAPGKGLEWVASVKQDGSEKYYVDSVKGRVTISLDTSKNQFSLKLSSVTAADTAVYYCARDGSSWYRDWFDPWGQGTLVSVS
VL: B1 VL with V3Q, L4M, V19A, T20A, I21L, T22S, S52A, T53S, D60A
B11: recombinant Aβ(21-37) autoantibody 55/68 (antibody, V domains shown)
VH: B4 VH
VL: B1 VL with V3Q, L4M, A9G, V19A, T20A, I21L, T22S, N30S, G50A, T53I

Each binder was assayed against amyloid β peptide (antigen of the EIA of Table 2) (assay: ELISA (EIA), amyloid β peptide immobilised; legend: (-) indicates no binding).
Protocol: (§1) All transfectants that expressed immunoglobulin efficiently were tested in an ELISA based on binding to amyloid β peptide. Biosensor data is ranked on a qualitative affinity binding assessment of the antibody to the cys-dimer peptide as described below.
Aβ(1-40) monomer, Aβ(1-40) oligomer, Aβ(1-40 Cys) oligomer, and control plate using bovine serum albumin (Sigma) or Aprotinin (Sigma) were immobilized at 1 μg/ml in PBS (50 μl per well) on a Nunc Maxisorb 96-well plate overnight at 4° C. Wells were washed once with 350 μl Wash Buffer (1×PBS, 0.05% (v/v) Tween-20 (Sigma)). Wells were then blocked with Blocking Buffer (2% (w/v) Difco Skim milk (BD) in PBS, 50-150 μl per well) for 2 hours at room-temperature and washed once with 350 μl Wash Buffer.

Sequence of amyloid β peptide (antigen of the EIA of Table 2) (peptide, as listed by the source): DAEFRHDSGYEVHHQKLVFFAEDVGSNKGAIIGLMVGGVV

Row | Binder | binding result
1 | B1 | no binding (tested: 100 µg/ml starting concentration)
2 | B2 | no binding (tested: 100 µg/ml starting concentration)
3 | B3 | no binding (tested: 100 µg/ml starting concentration)
4 | B4 | no binding (tested: 100 µg/ml starting concentration)
5 | B5 | no binding (tested: 100 µg/ml starting concentration)
6 | B6 | no binding (tested: 100 µg/ml starting concentration)
7 | B7 | no binding (tested: 100 µg/ml starting concentration)
8 | B8 | no binding (tested: 100 µg/ml starting concentration)
9 | B9 | no binding (tested: 100 µg/ml starting concentration)
10 | B10 | no binding (tested: 100 µg/ml starting concentration)
11 | B11 | no binding (tested: 100 µg/ml starting concentration)

These binders were tested against T1, Aβ(1-40 Cys) oligomer (Example 12A) (assay: Biacore, antibody captured on anti-human Ig chip, cys-dimer peptide injected; legend: (-) indicates no binding).
T1 construct: also called Aβ(1-40 Cys) dimer; cys-dimer peptide
Protocol: as §1
(§2) An anti-human immunoglobulin biosensor chip was prepared using a human antibody capture kit (Biacore, Sweden) as per manufacturer's instructions at flow rate of 5 μl/min with a 6 minute contact time during […] immobilisation. Approximately 10000 resonance units were achieved on all channels.

T1 sequence (peptide, as listed by the source): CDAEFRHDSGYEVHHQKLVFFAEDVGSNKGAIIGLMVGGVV

Row | Binder | binding result
12 | B1 | no binding (tested: peptide 20-50 µg/ml)
13 | B3 | no binding (tested: peptide 20-50 µg/ml)
14 | B4 | no binding (tested: peptide 20-50 µg/ml)
15 | B5 | no binding (tested: peptide 20-50 µg/ml)
16 | B6 | no binding (tested: peptide 20-50 µg/ml)
17 | B7 | no binding (tested: peptide 20-50 µg/ml)
18 | B9 | no binding (tested: peptide 20-50 µg/ml)
19 | B10 | no binding (tested: peptide 20-50 µg/ml)
20 | B11 | no binding (tested: peptide 20-50 µg/ml)

Each binder was assayed against T2, Aβ(1-40) monomer (Example 12A) (assay: Biacore, antibody captured on anti-human Ig chip, peptide injected).
T2 construct: Sigma peptide, HFIP treated, kept in DMSO
Protocol: as §2

Row | Binder | binding result
21 | B2 | no binding

The binders below were run against T1, Aβ(1-40 Cys) oligomer (Example 12A) in the same assay as above.
Protocol: as §2

Row | Binder | binding result
22 | B2 | no binding
